# Source: patent US20260055369A1, “METHOD FOR GENERATING CELLS OF THE T CELL LINEAGE WITH ENGINEERING BROADLY REACTIVE HUMAN NOTCH LIGAND” (H. Lee Moffitt Cancer Center and Research Institute, Inc., priority 2022, published 2026)
# B1: Delta^MAX: engineered human DLL4 consensus variant with 10 mutations combining DLL4.v1 and DLL4.v2 mutations; sequence matches SEQ ID NO: 4/10 (protein)
# chain: SSVFQLQLQEFINERGVLASGRPCEPGCRTFFRVCLKHFQAVVSPGPCTFGTVSTPVLGTNSFAVRDDSSGGGRNPLQLPLNFTWPGTFSLIIEAWHAPGDDLRPEALPPDALISKFAIQGSLAVGQNWLLDEQTSTLTRLRYSYRVICSDNYYGDNCSRLCKKRNDYFGHYVCQPDGNPSCLPGWTGEYCQQPICLSGCHEQNGYCSKPAECLCRPGWQGRLCNECIPHPGCRHGTCSTPWQCLCDEGWGGLYCDQDLNYCTHHSPCKNGATCRNSGPRSYTCTCRPGYTGVDCELELSECDSNPCRNGGSCKDQEDGYHCLCPPGYYGLHCEHSTLSCADSPCFNGGSCRERNQGANYACECPPNFTGSNCE
# How the values were obtained:
# [1] = tested on: full-length, cell surface-expressed Notch1; assay: Tetramer binding to Notch1 overexpressing CHO-K1 N1-Gal4 cells by flow cytometry; settings: tetramers
# From the text: Extended Data FIG. 5. Quantitation of mNotch1 binding to DLL4 variants, ligand adsorption, and Notch surface expression. a, SPR binding isotherms were fitted to a 1:1 binding model to determine the binding affinity between mNotch1 (6-13) and each DLL4 variant. b, Determination of plate adsorption for WT DLL4 and Delta^MAX by ELISA. Data represent mean values±s.d. of three biological replicates. c, Binding assay of WT DLL4 and Delta^MAX tetramers to Notch1 overexpressing CHO-K1 N1-Gal4 cells was measured by flow cytometry. Data represent mean values±s.d. of three biological replicates. d, The level of Notch1 expression on the surface of cell lines used in this study was determined by flow cytometry. Data represent mean values±s.d. of three biological replicates. e, Percentage of CD8^+ T cells expressing Notch1 (upper graph) and Notch2 (bottom graph) on cell surface determined by flow cytometry after stimulation with K32-WT DLL4, K32-Delta^MAX, or K32 for 96 hours. Data represent mean values±s.e.m. of three biological replicates. Delta^MAX statistics are referred to WT DLL4. *P<0.05, ****P<0.0001 (Two-way ANOVA).
# endogenous Notch1 = biological target: T1, endogenous Notch1 (Homo sapiens, UniProt P46531); assay: Western blot for cleaved Notch1 ICD in U2OS and MCF-7 cells; type: cell-based; settings: 50 nM C-terminally anchored, 24 hours
# T1 construct: cells expressing endogenous levels of Notch1; endogenous in cells; host or cells: U2OS; MCF-7
# T1 sequence (P46531 19-2555): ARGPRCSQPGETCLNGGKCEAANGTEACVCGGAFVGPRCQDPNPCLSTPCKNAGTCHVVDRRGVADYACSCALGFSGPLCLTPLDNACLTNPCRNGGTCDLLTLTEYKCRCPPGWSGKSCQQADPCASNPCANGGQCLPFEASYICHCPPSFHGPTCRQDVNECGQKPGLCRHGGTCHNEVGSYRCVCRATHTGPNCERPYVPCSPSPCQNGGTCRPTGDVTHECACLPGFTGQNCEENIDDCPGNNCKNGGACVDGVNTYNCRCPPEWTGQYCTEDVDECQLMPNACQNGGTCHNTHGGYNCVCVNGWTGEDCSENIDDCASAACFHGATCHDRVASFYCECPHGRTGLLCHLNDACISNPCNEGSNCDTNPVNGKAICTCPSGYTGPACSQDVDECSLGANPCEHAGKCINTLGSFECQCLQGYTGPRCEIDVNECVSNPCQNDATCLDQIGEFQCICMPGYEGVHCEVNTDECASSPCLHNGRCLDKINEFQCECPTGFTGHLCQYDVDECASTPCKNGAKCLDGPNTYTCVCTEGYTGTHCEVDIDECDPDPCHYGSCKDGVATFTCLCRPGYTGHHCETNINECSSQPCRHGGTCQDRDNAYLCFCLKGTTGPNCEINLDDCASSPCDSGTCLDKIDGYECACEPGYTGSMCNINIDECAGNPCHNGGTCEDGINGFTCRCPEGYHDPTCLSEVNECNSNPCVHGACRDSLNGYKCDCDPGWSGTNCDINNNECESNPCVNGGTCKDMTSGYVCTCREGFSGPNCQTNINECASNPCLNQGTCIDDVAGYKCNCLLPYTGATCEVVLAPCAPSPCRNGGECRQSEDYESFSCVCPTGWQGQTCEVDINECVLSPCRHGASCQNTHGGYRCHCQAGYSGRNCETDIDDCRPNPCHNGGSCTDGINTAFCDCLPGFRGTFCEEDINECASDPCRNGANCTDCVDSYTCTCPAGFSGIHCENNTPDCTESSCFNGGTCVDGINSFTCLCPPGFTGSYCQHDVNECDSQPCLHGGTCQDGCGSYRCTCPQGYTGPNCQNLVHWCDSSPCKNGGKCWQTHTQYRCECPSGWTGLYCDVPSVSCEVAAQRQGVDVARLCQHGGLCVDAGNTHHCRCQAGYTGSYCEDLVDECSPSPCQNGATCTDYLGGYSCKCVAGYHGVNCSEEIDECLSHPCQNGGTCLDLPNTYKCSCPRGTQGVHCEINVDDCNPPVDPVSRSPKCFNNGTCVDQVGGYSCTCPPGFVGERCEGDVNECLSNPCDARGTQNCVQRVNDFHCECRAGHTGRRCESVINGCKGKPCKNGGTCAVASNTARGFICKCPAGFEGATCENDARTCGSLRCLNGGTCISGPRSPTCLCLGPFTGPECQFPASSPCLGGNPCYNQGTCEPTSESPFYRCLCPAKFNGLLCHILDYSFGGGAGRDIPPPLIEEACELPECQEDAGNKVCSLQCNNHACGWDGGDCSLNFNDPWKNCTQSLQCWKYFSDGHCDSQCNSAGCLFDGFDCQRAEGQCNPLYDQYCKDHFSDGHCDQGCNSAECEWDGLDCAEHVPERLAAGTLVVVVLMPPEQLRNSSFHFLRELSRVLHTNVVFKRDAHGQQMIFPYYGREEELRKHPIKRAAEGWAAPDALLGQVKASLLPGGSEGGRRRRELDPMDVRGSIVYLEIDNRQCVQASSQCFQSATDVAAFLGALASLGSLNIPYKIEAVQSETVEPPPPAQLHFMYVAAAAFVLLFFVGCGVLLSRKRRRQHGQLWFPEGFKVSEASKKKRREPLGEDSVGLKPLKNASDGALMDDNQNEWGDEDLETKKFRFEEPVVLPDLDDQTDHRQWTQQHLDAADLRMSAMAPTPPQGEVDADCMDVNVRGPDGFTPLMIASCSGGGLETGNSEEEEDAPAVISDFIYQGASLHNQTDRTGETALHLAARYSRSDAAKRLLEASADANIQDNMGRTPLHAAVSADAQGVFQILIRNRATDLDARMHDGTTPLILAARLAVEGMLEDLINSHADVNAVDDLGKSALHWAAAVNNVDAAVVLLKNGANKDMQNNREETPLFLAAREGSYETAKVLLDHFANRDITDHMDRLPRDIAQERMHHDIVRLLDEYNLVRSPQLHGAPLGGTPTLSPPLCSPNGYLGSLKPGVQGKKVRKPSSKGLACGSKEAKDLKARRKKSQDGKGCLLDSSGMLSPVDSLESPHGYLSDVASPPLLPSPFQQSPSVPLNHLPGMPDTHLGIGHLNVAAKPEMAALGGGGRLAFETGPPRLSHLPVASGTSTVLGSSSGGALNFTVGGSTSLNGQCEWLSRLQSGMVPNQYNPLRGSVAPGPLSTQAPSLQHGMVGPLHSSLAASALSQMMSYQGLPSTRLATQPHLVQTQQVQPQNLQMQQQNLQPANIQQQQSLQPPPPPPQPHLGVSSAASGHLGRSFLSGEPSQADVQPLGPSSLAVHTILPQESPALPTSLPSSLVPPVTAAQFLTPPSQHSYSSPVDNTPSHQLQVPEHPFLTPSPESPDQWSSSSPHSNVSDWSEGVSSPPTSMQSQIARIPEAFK
# Procedure: For Notch activation in U2OS and MCF-7 cells, WT DLL4 and Delta^MAX biotinylated ligands were immobilized at 50 nM in 6-well streptavidin-coated plates following a scaled-up protocol of the one described before. After 24 hours of stimulation, cells were lysed in Laemmli […] buffer (40% glycerol, 4% SDS, 250 mM Tris-HCl, 0.02% bromophenol blue, and 20% β-mercaptoethanol). Cell lysates were heated at 100° C. for 5 min, centrifuged at 21,000×g for 10 min at 4° C., and supernatants stored at −20° C. Proteins were separated by SDS-PAGE (12% Mini-PROTEAN TGX Precast Protein Gels, Bio-Rad) and transferred to PVDF membranes using an iBlot2 Gel Transfer Device (Thermo Fisher Scientific). The membranes were blocked in 3% BSA+0.1% TBS-Tween. Primary antibodies were anti-cleaved Notch1 (Val1744 rabbit mAb, Cell Signaling Technology, 1:1,000), and β-Actin (rabbit pAb, Cell Signaling Technology, 1:1,000). Secondary antibody anti-Rabbit IgG conjugated to HRP (Goat mAb, Vector Laboratories, 1:8,000) was used for detection of proteins using SuperSignal West Pico PLUS Chemiluminescent Substrate (Thermo Fisher Scientific). Images were acquired using an Amersham Imager 600 (GE Healthcare), and contrast adjusted with a curves layer.
# Notch1 [2] = assay: Notch inhibition assay in co-culture format (CHO-K1 N1-Gal4 with HEK293T expressing WT DLL4); type: cell-based; settings: co-culture 1:1 with HEK293T expressing WT DLL4; read-out: IC50 for inhibition of Notch1 activation by cellular DLL4
# Procedure: For inhibition of CHO-K1 N1-Gal4 cells with DAPT and Delta^MAX, the experiment was set-up following the protocol described above with the exception that CHO-K1 N1-Gal4 reporters were incubated with HEK293T-expressing WT DLL4 for Notch activation. Three-fold serial dilutions of soluble Delta^MAX and DAPT were prepared in DPBS starting at 6,000 nM. For DAPT, a stock solution of 100 μM in 8% DMSO was prepared before serial dilutions in DPBS. Appropriate DMSO controls were also assayed for cytotoxicity. Final DMSO concentration in the wells was maintained below 1%. Thirty thousand signal senders and pre-blocked signal receivers (100 μL each) were incubated for 24 hours at 37° C. and 5% CO2 before analysis by flow cytometry. Maximum Notch activation (100%) was set in the absence of soluble inhibitors and normalized to wells containing CHO-K1 N1-Gal4 cells and HEK293T lacking expression of WT DLL4. Mean fluorescence intensity is represented as percentage relative to Notch activation in the absence of inhibitors±s.d. of three independent biological replicates.
# Notch1 [3] = assay: Notch inhibition, U2OS luciferase reporter on WT DLL4 coated plates; type: cell-based, human; settings: plates coated with 50 nM WT DLL4, 10-fold dilutions from 3,000 nM
# Procedure: (§1) For U2OS cells, on day one, 5×10^5 cells were plated in 6-well tissue culture plates. On day two, U2OS cells were transfected as described above. On day three, 96-well plates (Coastar) were coated with streptavidin and biotinylated WT DLL4 at 50 nM as described above. Next, U2OS reporter cells were detached with trypsin-EDTA and diluted at 200,000 cells/mL in DMEM media. Ten-fold serial dilutions of soluble DLL4 variants starting at 6,000 nM were prepared in DPBS and used to pre-block reports cells following the same protocol described above. Two-hundred microliters of inhibition reactions were added to 96-well plates pre-coated with biotinylated WT DLL4 ligand at 50 nM, and assay plates incubated for 24 hours at 37° C. and 5% CO2. On day fourth, luciferase signals were measured with Dual-Glo luciferase assay system (Promega) using a GloMax luminometer (Promega). Doxycycline at 2 μg/mL was maintained to […]. A ratio between firefly and Renilla luciferase was calculated, and Notch activation normalized to wells where inhibitors were non-added. The data represent fold-change of Notch activation as percentage, relative to Notch activation in the absence of inhibitors±s.d. of three independent biological replicates.
# Notch2 = assay: as above; type: cell-based, human; settings: plates coated with 50 nM WT DLL4, 10-fold dilutions from 3,000 nM
# Chain of Notch2 (Q04721 26-1677 limits assumed): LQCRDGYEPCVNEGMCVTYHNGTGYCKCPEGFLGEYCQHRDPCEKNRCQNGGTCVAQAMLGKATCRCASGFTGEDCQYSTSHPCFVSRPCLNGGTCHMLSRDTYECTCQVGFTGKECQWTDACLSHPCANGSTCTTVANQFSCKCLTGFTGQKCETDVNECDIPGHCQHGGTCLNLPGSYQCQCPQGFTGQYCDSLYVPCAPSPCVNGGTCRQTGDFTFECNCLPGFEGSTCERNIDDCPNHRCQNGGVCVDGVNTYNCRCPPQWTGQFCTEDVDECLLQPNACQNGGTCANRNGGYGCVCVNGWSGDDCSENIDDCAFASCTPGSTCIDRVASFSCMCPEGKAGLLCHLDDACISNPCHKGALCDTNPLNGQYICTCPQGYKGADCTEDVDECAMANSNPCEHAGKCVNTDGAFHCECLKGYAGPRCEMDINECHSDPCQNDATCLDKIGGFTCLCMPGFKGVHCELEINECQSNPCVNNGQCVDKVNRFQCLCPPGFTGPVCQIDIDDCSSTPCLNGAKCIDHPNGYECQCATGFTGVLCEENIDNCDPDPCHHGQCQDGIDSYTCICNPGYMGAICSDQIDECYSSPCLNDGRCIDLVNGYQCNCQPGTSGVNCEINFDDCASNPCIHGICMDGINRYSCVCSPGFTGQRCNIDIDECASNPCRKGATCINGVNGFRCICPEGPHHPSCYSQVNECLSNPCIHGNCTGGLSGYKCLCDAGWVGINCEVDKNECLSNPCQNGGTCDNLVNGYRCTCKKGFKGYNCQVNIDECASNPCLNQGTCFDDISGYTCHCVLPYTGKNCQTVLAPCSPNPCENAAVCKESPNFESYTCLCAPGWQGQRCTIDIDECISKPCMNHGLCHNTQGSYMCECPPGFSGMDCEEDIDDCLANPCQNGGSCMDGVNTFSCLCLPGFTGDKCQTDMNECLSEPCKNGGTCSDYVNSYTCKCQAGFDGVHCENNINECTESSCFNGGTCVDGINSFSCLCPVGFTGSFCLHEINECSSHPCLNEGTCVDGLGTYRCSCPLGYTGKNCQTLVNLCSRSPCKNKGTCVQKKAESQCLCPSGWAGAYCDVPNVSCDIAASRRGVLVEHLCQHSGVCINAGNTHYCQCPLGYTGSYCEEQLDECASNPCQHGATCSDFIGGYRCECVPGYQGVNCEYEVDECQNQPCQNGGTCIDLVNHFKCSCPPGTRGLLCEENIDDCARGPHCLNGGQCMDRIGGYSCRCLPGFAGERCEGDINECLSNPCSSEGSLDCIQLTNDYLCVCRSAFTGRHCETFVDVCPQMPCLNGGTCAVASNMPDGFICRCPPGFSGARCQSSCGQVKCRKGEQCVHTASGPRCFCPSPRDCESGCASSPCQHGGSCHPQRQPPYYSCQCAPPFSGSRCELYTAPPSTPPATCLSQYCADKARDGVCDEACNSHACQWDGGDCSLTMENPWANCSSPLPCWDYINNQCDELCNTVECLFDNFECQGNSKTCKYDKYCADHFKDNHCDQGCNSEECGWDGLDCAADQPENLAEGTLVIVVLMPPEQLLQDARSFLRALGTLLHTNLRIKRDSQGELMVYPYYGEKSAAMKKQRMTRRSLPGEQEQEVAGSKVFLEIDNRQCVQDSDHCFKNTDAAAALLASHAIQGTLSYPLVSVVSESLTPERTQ
# Procedure: as §1
# Notch3 = assay: as above; type: cell-based, human; settings: plates coated with 50 nM WT DLL4, 10-fold dilutions from 3,000 nM
# Chain of Notch3 (Q9UM47 197-505 limits assumed): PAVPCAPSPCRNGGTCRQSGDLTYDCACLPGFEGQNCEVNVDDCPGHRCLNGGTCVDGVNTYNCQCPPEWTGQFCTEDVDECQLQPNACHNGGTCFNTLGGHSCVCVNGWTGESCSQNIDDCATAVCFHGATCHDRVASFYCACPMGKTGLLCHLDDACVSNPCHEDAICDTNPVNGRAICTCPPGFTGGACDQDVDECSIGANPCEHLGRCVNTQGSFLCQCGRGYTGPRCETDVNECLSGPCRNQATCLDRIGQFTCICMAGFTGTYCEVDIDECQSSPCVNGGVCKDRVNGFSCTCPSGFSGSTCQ
# Procedure: as §1
molecule,measurement,setting,value
B1,increase of mean fluorescence intensity (MFI) of binding compared to WT DLL4,[1],4.7 fold
same,Notch1 activation (cleaved Notch1 ICD) vs WT DLL4,endogenous Notch1; MCF-7 cells,much more potently
same,Notch1 activation (cleaved Notch1 ICD) vs WT DLL4,endogenous Notch1; U2OS cells,much more potently
same,IC50,Notch1 [2],400 nM
same,effect of soluble competitor on Notch1 signaling,Notch1 [3],dose-dependent decreases
same,effect of soluble competitor on Notch2 signaling,Notch2,dose-dependent decreases
same,effect of soluble competitor on Notch3 signaling,Notch3,dose-dependent decreases
